Measured values: paper PMC7000732, “Bridging non-overlapping reads illuminates high-order epistasis between distal protein sites in a GPCR” (Nature Communications, 2020)
“And” between values parts separate entries of the source, which are not always exact repeats. Equal entries are not always repeated. Where two headings read alike, the source gives them in different places.

How the values were obtained:
[1] = Fluorescent ligand binding measured by flow cytometry; design: species or system Saccharomyces cerevisiae; conditions: for % pop above background / Mean Singlet Fluorescence Intensity (530 nm): incubated with FITC-APEC; for % pop above background / Mean Singlet Fluorescence Intensity (530 nm) / fluorescent ligand binding signal: replicates; for fluorescent ligand binding signal: Supplementary Figure 1 source data
[2] = FACS-based screen of A2aR library with deep sequencing (BRIDGE): variant enrichment; assay type: cell-based, Saccharomyces cerevisiae
[3] = Whole-cell saturation radioligand binding; design: species or system Saccharomyces cerevisiae; conditions: for Kd: 3H-NECA, whole yeast cells, pH 5.8, mean ± SD of three biological replicates, read-out: equilibrium dissociation constant (Kd); for CPM: raw replicate counts, empty vector not subtracted; for fold greater 3H-NECA binding affinity than wild-type receptor: ratio of Kd to wild-type

| Molecule | Kd [3] | CPM ([3]; [3H-NECA] 1.6 nM) | CPM ([3]; [3H-NECA] 3.1 nM) | CPM ([3]; [3H-NECA] 6.3 nM) | CPM ([3]; [3H-NECA] 12.5 nM) | CPM ([3]; [3H-NECA] 25 nM) | CPM ([3]; [3H-NECA] 50 nM) | CPM ([3]; [3H-NECA] 100 nM) | CPM ([3]; [3H-NECA] 200 nM) | CPM ([3]; [3H-NECA] 400 nM) | fold greater 3H-NECA binding affinity than wild-type receptor [3] | Fold increase in enrichment rate over WT [2] | other results |
| --- | --- | --- | --- | --- | --- | --- | --- | --- | --- | --- | --- | --- | --- |
| pITy A2a10H: decahistidine-tagged wild-type A2aR expressed in yeast from multi-site-integrating pITy vector | – | – | – | – | – | – | – | – | – | – | – | – | % pop above background ([1]; +raffinose): 97.3% and 99.1% and 99.7%; Mean Singlet Fluorescence Intensity (530 nm) ([1]; +raffinose): 1177 a.u. and 1389 a.u. and 1621 a.u.; % pop above background ([1]; -raffinose): 88.4% and 92.7% and 86.6%; Mean Singlet Fluorescence Intensity (530 nm) ([1]; -raffinose): 853 a.u. and 1341 a.u. and 1013 a.u.; fluorescent ligand binding signal ([1]; [FITC-APEC] 10 nM): 102 and 103 and 101; fluorescent ligand binding signal ([1]; [FITC-APEC] 100 nM): 124 and 112 and 118; fluorescent ligand binding signal ([1]; [FITC-APEC] 1000 nM): 357 and 323 and 352; fluorescent ligand binding signal ([1]; [FITC-APEC] 10000 nM): 1097 and 999 and 1047; fluorescent ligand binding signal ([1]; [FITC-APEC] 50000 nM): 1681 and 1267 and 1322 |
| TGRIA: Variant GRIA (T88/Q89G/W246R/L249I/H250A) of human adenosine A2a receptor (protein, UniProt P29274 1-412, looked up, variant Q89G W246R L249I H250A) Adenosine receptor A2a: MPIMGSSVYITVELAIAVLAILGNVLVCWAVWLNSNLQNVTNYFVVSLAAADIAVGVLAIPFAITISTGFCAACHGCLFIACFVLVLTGSSIFSLLAIAIDRYIAIRIPLRYNGLVTGTRAKGIIAICWVLSFAIGLTPMLGWNNCGQPKEGKNHSQGCGEGQVACLFEDVVPMNYMVYFNFFACVLVPLLLMLGVYLRIFLAARRQLKQMESQPLPGERARSTLQKEVHAAKSLAIIVGLFALCRLPIAIINCFTFFCPDCSHAPLWLMYLAIVLSHTNSVVNPFIYAYRIREFRQTFRKIIRSHVLRQQEPFKAAGTSARVLAAHGSDGEQVSLRLNGHPPGVWANGSAPHPERRPNGYALGLVSGGSAQESQGNTGLPDVELLSHELKGVCPEPPGLDDPLAQDGAGVS | 10.9 ± 0.8 nM | 148 CPM and 222 CPM and 182 CPM | 317 CPM and 337 CPM and 348 CPM | 477 CPM and 597 CPM and 529 CPM | 612 CPM and 847 CPM and 800 CPM | 815 CPM and 1157 CPM and 1066 CPM | 1152 CPM and 1391 CPM and 1352 CPM | 1488 CPM and 1655 CPM and 1630 CPM | 1857 CPM and 2089 CPM and 2112 CPM | 2326 CPM and 2813 CPM and 3169 CPM | fourfold | – | Enrichment rate ([2]; naive to PS4 library (PS4/naive), high-stringency gating, 10 µM FITC-APEC): 517; Fold increase in enrichment rate over WT ([2]; naive to PS4 library, WT rate 0.30): 1722 fold |
| SLNIG: A2aR variant; letters are residues at T88, Q89, W246, L249, H250 (protein, UniProt P29274 1-412, looked up, variant T88S Q89L W246N L249I H250G) Adenosine receptor A2a: MPIMGSSVYITVELAIAVLAILGNVLVCWAVWLNSNLQNVTNYFVVSLAAADIAVGVLAIPFAITISTGFCAACHGCLFIACFVLVLSLSSIFSLLAIAIDRYIAIRIPLRYNGLVTGTRAKGIIAICWVLSFAIGLTPMLGWNNCGQPKEGKNHSQGCGEGQVACLFEDVVPMNYMVYFNFFACVLVPLLLMLGVYLRIFLAARRQLKQMESQPLPGERARSTLQKEVHAAKSLAIIVGLFALCNLPIGIINCFTFFCPDCSHAPLWLMYLAIVLSHTNSVVNPFIYAYRIREFRQTFRKIIRSHVLRQQEPFKAAGTSARVLAAHGSDGEQVSLRLNGHPPGVWANGSAPHPERRPNGYALGLVSGGSAQESQGNTGLPDVELLSHELKGVCPEPPGLDDPLAQDGAGVS | 10.7 ± 0.6 nM | 138 CPM and 195 CPM and 220 CPM | 282 CPM and 376 CPM and 382 CPM | 494 CPM and 563 CPM and 618 CPM | 783 CPM and 767 CPM and 883 CPM | 861 CPM and 1199 CPM and 1152 CPM | 1216 CPM and 1410 CPM and 1521 CPM | 1341 CPM and 1416 CPM and 1794 CPM | 1692 CPM and 1849 CPM and 2050 CPM | 2037 CPM and 2595 CPM and 2482 CPM | – | 2635 fold | Enrichment rate [2]: 791 |
| C28A/C82A/C128A/C185A/C245S/C254A/C394S: inactive A2aR variant that does not bind ligand (protein, UniProt P29274 1-412, looked up, variant C28A C82A C128A C185A C245S C254A C394S) Adenosine receptor A2a: MPIMGSSVYITVELAIAVLAILGNVLVAWAVWLNSNLQNVTNYFVVSLAAADIAVGVLAIPFAITISTGFCAACHGCLFIAAFVLVLTQSSIFSLLAIAIDRYIAIRIPLRYNGLVTGTRAKGIIAIAWVLSFAIGLTPMLGWNNCGQPKEGKNHSQGCGEGQVACLFEDVVPMNYMVYFNFFAAVLVPLLLMLGVYLRIFLAARRQLKQMESQPLPGERARSTLQKEVHAAKSLAIIVGLFALSWLPLHIINAFTFFCPDCSHAPLWLMYLAIVLSHTNSVVNPFIYAYRIREFRQTFRKIIRSHVLRQQEPFKAAGTSARVLAAHGSDGEQVSLRLNGHPPGVWANGSAPHPERRPNGYALGLVSGGSAQESQGNTGLPDVELLSHELKGVSPEPPGLDDPLAQDGAGVS | – | – | – | – | – | – | – | – | – | – | – | – | fluorescent ligand binding, result in words ([1]; FITC-APEC, yeast cells): does not bind ligand |
| TSWLH: single-residue mutant Q89S of A2aR, the most abundant variant in PS4 (protein, UniProt P29274 1-412, looked up, variant Q89S) Adenosine receptor A2a: MPIMGSSVYITVELAIAVLAILGNVLVCWAVWLNSNLQNVTNYFVVSLAAADIAVGVLAIPFAITISTGFCAACHGCLFIACFVLVLTSSSIFSLLAIAIDRYIAIRIPLRYNGLVTGTRAKGIIAICWVLSFAIGLTPMLGWNNCGQPKEGKNHSQGCGEGQVACLFEDVVPMNYMVYFNFFACVLVPLLLMLGVYLRIFLAARRQLKQMESQPLPGERARSTLQKEVHAAKSLAIIVGLFALCWLPLHIINCFTFFCPDCSHAPLWLMYLAIVLSHTNSVVNPFIYAYRIREFRQTFRKIIRSHVLRQQEPFKAAGTSARVLAAHGSDGEQVSLRLNGHPPGVWANGSAPHPERRPNGYALGLVSGGSAQESQGNTGLPDVELLSHELKGVCPEPPGLDDPLAQDGAGVS | 11.8 ± 1 nM | 269 CPM and 283 CPM and 176 CPM | 574 CPM and 478 CPM and 918 CPM | 877 CPM and 818 CPM and 594 CPM | 1293 CPM and 1161 CPM and 783 CPM | 1556 CPM and 1523 CPM and 1194 CPM | 2099 CPM and 1735 CPM and 1402 CPM | 2533 CPM and 2165 CPM and 1719 CPM | 2889 CPM and 2229 CPM and 2151 CPM | 3382 CPM and 2947 CPM and 2944 CPM | fourfold | 1121 fold | – |
